The results in this text go back to publication doi:10.1101/846337.

Some results are limits rather than exact numbers.

As usually defined, the Kd is the equilibrium constant for the complex coming apart.

This experiment deals with F-actin (filamentous actin, purified from chicken breast) (Gallus gallus (chicken)) (UniProt P68139). Kind of experiment: co-sedimentation.
Regarding “UTRN-ABD N109A (from UniProt P46939 1-261) (domain or fragment)”, the Kd was 55 µM.

For the substance “Human UTRN-ABD (utrophin actin binding domain, amino acids 1-261) (from UniProt P46939 1-261) (domain or fragment)”, the equilibrium dissociation constant (Kd) was 1.8 µM. This Kd is about 31-fold lower than that of the substance before.

With “UTRN-ABD I22D (from UniProt P46939 1-261) (domain or fragment)”, the dissociation constant (Kd) came to 38 µM.

The substance “UTRN-ABD V87D (from UniProt P46939 1-261) (domain or fragment)” displayed a Kd greater than 100 µM.

Substance “UTRN-ABD H29A (from UniProt P46939 1-261) (domain or fragment)” had a Kd of 2.8 µM.
